Test results taken from the supplement of paper PMC10065799, “High-throughput profiling of sequence recognition by tyrosine kinases and SH2 domains using bacterial peptide display” (eLife, 2023).

Key:
FGFR3 = FGFR3 (UniProt P22607); assay: phosphorylation enrichment, bacterial display (enrichment ratio); higher = better substrate or ligand; peptides without Tyr show the background
c-Abl (mouse) = assay: as above
Fer (mouse) = assay: as above
Jak2 = Jak2 (UniProt O60674); assay: as above
FGFR1 = FGFR1 (UniProt P11362); assay: as above
c-Src = assay: as above
EPHB1 = EPHB1 (UniProt P54762); assay: as above
Hck = Hck (UniProt P08631); assay: as above
Fyn = Fyn (UniProt P06241); assay: as above
AncSZ = assay: as above
EPHB2 = EPHB2 (UniProt P29323); assay: as above
MERTK = MERTK (UniProt Q12866); assay: as above
Fes = Fes (UniProt P07332); assay: as above
SHP2-C SH2 = assay: SH2 binding enrichment of the phosphorylated peptide, bacterial display (enrichment ratio); higher = better substrate or ligand; peptides without Tyr show the background
Grb2 SH2 = Grb2 SH2 (UniProt P62993); assay: as above
c-Src SH2 = assay: as above
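Wherever SH2 binding enrichment of the phosphorylated peptide, bacterial display is given: peptide library displayed on the E. coli surface as eCPX fusions, selected cells deep-sequenced, score is each peptide's frequency after selection divided by its frequency in the input.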
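Wherever phosphorylation enrichment, bacterial display is given: 11-residue human phosphosite peptides and single-mutation variants displayed on the E. coli surface, counted by deep sequencing, each peptide's frequency after selection divided by its frequency in the unselected input library; frequency after pTyr selection over input frequency; kinase dosed for 20-30% of maximal phosphorylation in three min.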

FGFR3, sequence (P22607 whole entry, looked up): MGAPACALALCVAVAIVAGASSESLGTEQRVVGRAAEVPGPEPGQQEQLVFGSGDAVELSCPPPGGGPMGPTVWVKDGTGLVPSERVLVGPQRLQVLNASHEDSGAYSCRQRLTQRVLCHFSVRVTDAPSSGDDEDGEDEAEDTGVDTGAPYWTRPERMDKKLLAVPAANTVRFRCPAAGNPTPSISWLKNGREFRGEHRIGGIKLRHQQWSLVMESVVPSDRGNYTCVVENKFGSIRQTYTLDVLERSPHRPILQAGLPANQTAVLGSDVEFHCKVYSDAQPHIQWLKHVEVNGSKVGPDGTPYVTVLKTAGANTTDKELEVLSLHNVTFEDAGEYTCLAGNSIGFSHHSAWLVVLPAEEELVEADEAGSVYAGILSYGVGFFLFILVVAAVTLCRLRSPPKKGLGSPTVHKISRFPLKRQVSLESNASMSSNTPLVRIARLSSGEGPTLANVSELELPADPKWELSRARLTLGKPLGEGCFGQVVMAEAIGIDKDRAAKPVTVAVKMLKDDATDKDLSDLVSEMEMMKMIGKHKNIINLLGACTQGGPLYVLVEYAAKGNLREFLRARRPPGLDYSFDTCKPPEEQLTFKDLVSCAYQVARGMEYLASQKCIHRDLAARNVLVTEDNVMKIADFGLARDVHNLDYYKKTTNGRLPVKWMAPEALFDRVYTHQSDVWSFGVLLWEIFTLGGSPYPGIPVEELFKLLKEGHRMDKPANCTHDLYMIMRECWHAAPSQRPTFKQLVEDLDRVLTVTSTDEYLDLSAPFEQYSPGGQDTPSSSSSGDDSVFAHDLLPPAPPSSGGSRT
EPHB2, sequence (P29323 whole entry, looked up): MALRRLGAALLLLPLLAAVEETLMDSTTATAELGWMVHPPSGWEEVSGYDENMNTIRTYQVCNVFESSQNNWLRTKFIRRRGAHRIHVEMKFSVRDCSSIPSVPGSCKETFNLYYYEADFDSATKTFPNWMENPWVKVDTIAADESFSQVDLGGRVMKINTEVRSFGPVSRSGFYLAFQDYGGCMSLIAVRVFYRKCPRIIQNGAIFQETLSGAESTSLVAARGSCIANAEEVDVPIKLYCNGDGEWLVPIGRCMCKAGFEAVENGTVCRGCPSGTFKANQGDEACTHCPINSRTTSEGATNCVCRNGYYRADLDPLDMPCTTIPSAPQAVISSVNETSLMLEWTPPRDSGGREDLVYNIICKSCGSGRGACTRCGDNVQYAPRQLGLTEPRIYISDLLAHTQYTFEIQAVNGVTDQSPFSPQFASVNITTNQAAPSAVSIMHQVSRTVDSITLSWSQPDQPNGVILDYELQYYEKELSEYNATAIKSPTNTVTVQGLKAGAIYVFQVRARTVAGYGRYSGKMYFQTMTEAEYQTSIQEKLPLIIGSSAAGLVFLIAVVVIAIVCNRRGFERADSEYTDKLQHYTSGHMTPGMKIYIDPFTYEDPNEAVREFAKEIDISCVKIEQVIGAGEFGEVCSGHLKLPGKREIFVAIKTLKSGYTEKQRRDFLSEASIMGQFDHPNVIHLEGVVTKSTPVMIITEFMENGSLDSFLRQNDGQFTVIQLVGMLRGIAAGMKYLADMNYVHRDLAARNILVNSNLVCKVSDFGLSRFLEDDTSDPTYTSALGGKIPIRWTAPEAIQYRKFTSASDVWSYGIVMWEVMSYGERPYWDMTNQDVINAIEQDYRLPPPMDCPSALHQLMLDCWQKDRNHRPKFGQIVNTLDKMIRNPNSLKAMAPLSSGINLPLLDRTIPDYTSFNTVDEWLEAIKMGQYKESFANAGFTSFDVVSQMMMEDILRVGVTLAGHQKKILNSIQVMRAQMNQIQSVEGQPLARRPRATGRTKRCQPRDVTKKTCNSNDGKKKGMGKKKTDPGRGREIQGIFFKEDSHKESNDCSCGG
MERTK, sequence (Q12866 whole entry, looked up): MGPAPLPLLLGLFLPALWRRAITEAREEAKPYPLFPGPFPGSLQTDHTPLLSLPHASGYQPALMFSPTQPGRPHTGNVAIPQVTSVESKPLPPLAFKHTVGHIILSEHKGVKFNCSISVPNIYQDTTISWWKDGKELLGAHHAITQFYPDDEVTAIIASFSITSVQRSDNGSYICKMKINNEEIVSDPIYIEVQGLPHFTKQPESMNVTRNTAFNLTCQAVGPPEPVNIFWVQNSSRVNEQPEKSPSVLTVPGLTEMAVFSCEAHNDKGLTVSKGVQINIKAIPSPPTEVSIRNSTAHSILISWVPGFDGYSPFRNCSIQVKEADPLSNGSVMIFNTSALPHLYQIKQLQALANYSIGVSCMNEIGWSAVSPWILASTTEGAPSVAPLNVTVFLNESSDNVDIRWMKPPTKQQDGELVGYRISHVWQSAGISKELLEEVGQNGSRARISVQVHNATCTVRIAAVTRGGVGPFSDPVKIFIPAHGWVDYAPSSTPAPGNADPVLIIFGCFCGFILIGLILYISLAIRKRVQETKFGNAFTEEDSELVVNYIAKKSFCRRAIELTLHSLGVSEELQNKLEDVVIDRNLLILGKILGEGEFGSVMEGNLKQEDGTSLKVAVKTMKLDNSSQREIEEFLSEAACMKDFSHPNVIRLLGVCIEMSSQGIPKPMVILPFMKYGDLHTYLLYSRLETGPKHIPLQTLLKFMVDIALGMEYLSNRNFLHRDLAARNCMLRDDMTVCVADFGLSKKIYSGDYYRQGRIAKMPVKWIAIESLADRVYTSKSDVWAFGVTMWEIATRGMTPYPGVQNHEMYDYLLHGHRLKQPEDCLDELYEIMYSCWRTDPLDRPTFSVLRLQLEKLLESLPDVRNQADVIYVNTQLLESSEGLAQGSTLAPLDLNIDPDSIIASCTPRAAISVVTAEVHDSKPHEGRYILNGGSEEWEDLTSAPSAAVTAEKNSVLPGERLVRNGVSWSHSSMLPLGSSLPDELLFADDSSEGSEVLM
Jak2, sequence (O60674 whole entry, looked up): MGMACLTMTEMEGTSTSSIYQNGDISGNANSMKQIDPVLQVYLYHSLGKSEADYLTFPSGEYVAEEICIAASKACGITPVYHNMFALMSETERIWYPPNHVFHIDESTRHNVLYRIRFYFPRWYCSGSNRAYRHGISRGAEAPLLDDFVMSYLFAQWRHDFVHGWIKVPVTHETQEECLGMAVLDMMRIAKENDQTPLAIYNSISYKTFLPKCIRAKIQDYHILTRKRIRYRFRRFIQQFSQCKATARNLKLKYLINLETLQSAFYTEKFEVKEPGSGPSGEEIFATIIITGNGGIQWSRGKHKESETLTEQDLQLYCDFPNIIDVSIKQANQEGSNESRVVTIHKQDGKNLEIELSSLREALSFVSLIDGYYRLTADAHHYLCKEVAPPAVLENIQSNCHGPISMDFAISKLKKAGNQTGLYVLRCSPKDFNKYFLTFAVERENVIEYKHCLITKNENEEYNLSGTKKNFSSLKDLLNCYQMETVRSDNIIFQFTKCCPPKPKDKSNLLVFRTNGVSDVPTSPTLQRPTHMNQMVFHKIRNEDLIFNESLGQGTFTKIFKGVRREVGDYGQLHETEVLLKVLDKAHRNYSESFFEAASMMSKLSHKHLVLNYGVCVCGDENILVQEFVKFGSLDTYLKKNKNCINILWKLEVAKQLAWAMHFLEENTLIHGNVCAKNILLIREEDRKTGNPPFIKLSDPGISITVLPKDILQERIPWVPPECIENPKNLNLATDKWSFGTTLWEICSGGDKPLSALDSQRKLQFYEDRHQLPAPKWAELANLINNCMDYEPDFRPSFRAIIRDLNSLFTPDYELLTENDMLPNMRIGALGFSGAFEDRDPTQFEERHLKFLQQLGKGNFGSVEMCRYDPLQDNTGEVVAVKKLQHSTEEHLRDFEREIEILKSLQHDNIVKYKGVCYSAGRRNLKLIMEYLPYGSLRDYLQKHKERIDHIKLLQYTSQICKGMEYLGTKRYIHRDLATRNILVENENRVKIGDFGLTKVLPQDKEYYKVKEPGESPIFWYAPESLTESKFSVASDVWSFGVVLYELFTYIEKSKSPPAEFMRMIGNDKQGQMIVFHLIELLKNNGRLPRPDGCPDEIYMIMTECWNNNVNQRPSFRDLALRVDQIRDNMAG
Hck, sequence (P08631 whole entry, looked up): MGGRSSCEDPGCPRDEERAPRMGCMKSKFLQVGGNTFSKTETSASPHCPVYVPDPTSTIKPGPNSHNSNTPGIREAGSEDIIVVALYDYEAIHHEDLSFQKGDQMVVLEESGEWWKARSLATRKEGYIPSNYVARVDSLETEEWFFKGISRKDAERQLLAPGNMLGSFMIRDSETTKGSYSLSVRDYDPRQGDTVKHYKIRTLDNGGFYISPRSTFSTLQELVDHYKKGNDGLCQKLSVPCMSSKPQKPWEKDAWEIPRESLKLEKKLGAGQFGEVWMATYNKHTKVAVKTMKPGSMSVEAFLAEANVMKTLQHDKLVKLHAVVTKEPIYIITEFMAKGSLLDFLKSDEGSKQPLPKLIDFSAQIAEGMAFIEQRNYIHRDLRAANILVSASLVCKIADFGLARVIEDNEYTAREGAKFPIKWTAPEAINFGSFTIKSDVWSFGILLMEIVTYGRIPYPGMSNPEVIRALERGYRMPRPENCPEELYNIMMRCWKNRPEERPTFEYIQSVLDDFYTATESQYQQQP
Fyn, sequence (P06241 whole entry, looked up): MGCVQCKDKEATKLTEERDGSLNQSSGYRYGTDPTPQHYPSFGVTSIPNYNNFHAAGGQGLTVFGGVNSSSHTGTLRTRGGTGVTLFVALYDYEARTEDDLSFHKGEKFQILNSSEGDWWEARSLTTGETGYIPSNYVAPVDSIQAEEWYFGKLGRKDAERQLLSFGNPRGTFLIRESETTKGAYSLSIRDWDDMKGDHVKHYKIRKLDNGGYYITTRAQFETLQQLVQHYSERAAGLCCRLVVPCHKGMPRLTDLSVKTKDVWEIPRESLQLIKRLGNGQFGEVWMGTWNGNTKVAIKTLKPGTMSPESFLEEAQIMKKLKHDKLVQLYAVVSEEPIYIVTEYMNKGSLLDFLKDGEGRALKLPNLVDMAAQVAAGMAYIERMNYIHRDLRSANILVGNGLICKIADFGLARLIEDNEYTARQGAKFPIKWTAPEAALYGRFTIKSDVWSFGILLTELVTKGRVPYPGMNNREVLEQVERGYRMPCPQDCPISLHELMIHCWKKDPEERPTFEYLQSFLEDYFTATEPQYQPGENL

Row | Sequence | phosphorylation enrichment (FGFR3) | phosphorylation enrichment (c-Abl (mouse)) | phosphorylation enrichment (Fer (mouse)) | phosphorylation enrichment (Jak2) | phosphorylation enrichment (FGFR1) | phosphorylation enrichment (c-Src) | phosphorylation enrichment (EPHB1) | phosphorylation enrichment (Hck) | phosphorylation enrichment (Fyn) | phosphorylation enrichment (AncSZ) | phosphorylation enrichment (EPHB2) | phosphorylation enrichment (MERTK) | phosphorylation enrichment (Fes) | SH2 binding enrichment (SHP2-C SH2) | SH2 binding enrichment (Grb2 SH2) | SH2 binding enrichment (c-Src SH2)
1 | DKPENYRRLDI [VHL_Y175_V170D] | 0.467 | 0.39 | 0.452 | 0.551 | 0.558 | 0.418 | 0.388 | 0.442 | 0.46 | 0.647 | 0.412 | 0.402 | 0.657 | 0.637 | 0.68 | 0.472
2 | DLFRLYICVKE [ARID1B_Y1091_V1092I] | 1 | 0.997 | 0.591 | 1.45 | 0.471 | 0.499 | 0.741 | 0.572 | 0.456 | 1.19 | 0.715 | 0.391 | 1.61 | 0.521 | 0.744 | 0.384
3 | DLFRLYVCVKE [ARID1B_Y1091] | 0.88 | 0.875 | 0.548 | 1.35 | 0.389 | 0.431 | 0.697 | 0.475 | 0.396 | 1.17 | 0.67 | 0.364 | 1.52 | 0.51 | 0.59 | 0.35
4 | DLGIQYKVLKP [CTNNA1_Y177_A179V] | 0.692 | 0.759 | 0.417 | 1.12 | 0.481 | 0.521 | 0.462 | 0.548 | 0.46 | 1.1 | 0.624 | 0.413 | 1.28 | 0.691 | 0.793 | 0.411
5 | DLHGIYQKLVI | 1.31 | 3.83 | 11.4 | 0.82 | 1.65 | 5.84 | 4.32 | 7.64 | 8.38 | 0.886 | 3.01 | 5.38 | 1.04 | 0.822 | 0.952 | 0.597
6 | DLRGIYQKLVI | 0.854 | 1.76 | 7.47 | 0.869 | 0.825 | 5.56 | 1.81 | 6.68 | 6.38 | 0.826 | 1.32 | 4.99 | 1.4 | 1.09 | 1.23 | 0.721
7 | DMLYQYLKQIE [RPAP3_Y569] | 2.4 | 0.602 | 6.39 | 0.83 | 3.07 | 1.43 | 3.36 | 5.42 | 1.19 | 1.23 | 1.96 | 5.97 | 0.887 | 0.635 | 1.15 | 0.537
8 | DNACQYMLTDR [MYH7_Y164_Y162C] | 0.691 | 0.766 | 0.523 | 0.959 | 0.614 | 1.24 | 0.6 | 0.567 | 0.571 | 1.02 | 0.612 | 0.532 | 1 | 0.866 | 0.859 | 0.814
9 | DPHKIYEFVNS [IRF3_Y107] | 1.51 | 4.23 | 18.1 | 0.729 | 1.77 | 8.03 | 18.2 | 10.3 | 9.53 | 0.984 | 19.2 | 10.3 | 7.43 | 0.766 | 0.902 | 0.609
10 | DQIDTYELSGA [DNM1_Y354_G359A] | 0.809 | 0.681 | 0.637 | 1.03 | 0.475 | 0.793 | 0.545 | 0.741 | 0.964 | 1.21 | 0.554 | 0.475 | 1.16 | 0.727 | 0.824 | 0.493
11 | DRLASYPEKVR [KRT13_Y118_L119P] | 0.413 | 0.41 | 0.329 | 0.403 | 0.403 | 0.331 | 0.323 | 0.329 | 0.35 | 0.395 | 0.413 | 0.34 | 0.57 | 0.636 | 0.845 | 0.511
12 | DRLTVYIDRVR [LMNA_Y45_A43T] | 0.779 | 0.749 | 0.433 | 1.15 | 0.426 | 0.324 | 0.553 | 0.458 | 0.409 | 1.34 | 0.614 | 0.312 | 1.26 | 0.919 | 0.953 | 0.636
13 | DTLASYLDKVR [KRT12_Y139_R135T] | 0.415 | 0.495 | 0.304 | 0.42 | 0.352 | 0.364 | 0.403 | 0.408 | 0.378 | 0.552 | 0.44 | 0.411 | 0.76 | 0.73 | 0.98 | 0.687
14 | DTNIAYWLHPR [POMT1_Y581] | 1.23 | 0.473 | 0.373 | 0.813 | 1.84 | 0.717 | 0.433 | 0.633 | 0.64 | 0.762 | 0.44 | 0.803 | 0.763 | 1.08 | 1.03 | 0.561
15 | DVAKEYGHLLP [HRC_Y99_S96A] | 0.522 | 0.555 | 0.403 | 0.781 | 0.436 | 0.52 | 0.517 | 0.547 | 0.422 | 0.723 | 0.512 | 0.402 | 0.822 | 0.604 | 0.984 | 0.429
16 | DVFRQYASLTG [GANAB_Y379] | 0.428 | 0.573 | 0.417 | 0.589 | 0.395 | 0.402 | 0.422 | 0.448 | 0.379 | 0.568 | 0.44 | 0.406 | 0.709 | 6.85 | 0.893 | 2.5
17 | EAESWYQTKFE [KRT75_Y342_YF] | 0.808 | 0.684 | 0.624 | 0.906 | 0.49 | 0.583 | 0.721 | 0.735 | 0.662 | 1.06 | 0.568 | 0.436 | 1.18 | 0.434 | 0.794 | 0.699
18 | EARRVYRDIIH [ALDH5A1_Y175_G176R] | 0.415 | 0.528 | 0.305 | 0.475 | 0.357 | 0.41 | 0.318 | 0.325 | 0.352 | 0.549 | 0.386 | 0.403 | 0.547 | 0.75 | 0.928 | 0.513
19 | EASGIYVKSVI [PATJ_Y396_I400V] | 0.741 | 0.716 | 0.481 | 0.97 | 0.47 | 0.462 | 0.543 | 0.501 | 0.433 | 0.958 | 0.465 | 0.366 | 1.1 | 0.55 | 0.783 | 0.481
20 | ECKLLYSQKEG [PTPN11_Y263_R265Q] | 0.705 | 0.724 | 0.607 | 0.986 | 0.532 | 0.541 | 0.643 | 0.682 | 0.489 | 0.865 | 0.759 | 0.494 | 1.08 | 0.667 | 0.786 | 0.554
21 | EEGESYVCSSD [DCX_Y125] | 0.945 | 0.924 | 0.799 | 1.21 | 0.676 | 0.603 | 0.814 | 0.694 | 0.56 | 1.31 | 0.792 | 0.58 | 1.41 | 0.839 | 1.08 | 0.793
22 | EEKKKYFDAKI [CASP5_Y103_T106A_YF] | 0.464 | 0.58 | 0.401 | 0.684 | 0.488 | 0.479 | 0.385 | 0.442 | 0.4 | 0.798 | 0.43 | 0.501 | 0.818 | 0.672 | 1.01 | 0.446
23 | EERNPYYSSAR [MCCC2_Y520_G517R] | 0.552 | 0.591 | 0.505 | 0.923 | 0.487 | 1.56 | 0.472 | 0.828 | 0.654 | 0.942 | 0.5 | 0.468 | 0.749 | 0.875 | 0.963 | 2.83
24 | EESSHYSTEKE [ADAR_Y587] | 0.578 | 0.604 | 0.531 | 0.658 | 0.597 | 0.427 | 0.621 | 0.589 | 0.633 | 1.14 | 0.493 | 0.509 | 1.47 | 0.646 | 0.955 | 0.549
25 | EFISESCGEII [EZH2_Y641_Y641S] | 0.592 | 0.783 | 0.484 | 1.04 | 0.567 | 0.568 | 0.544 | 0.476 | 0.484 | 1.17 | 0.752 | 0.419 | 1.19 | 0.716 | 1 | 0.532
26 | EFNLMYDGTKE [IRF6_Y97] | 0.603 | 0.705 | 0.479 | 1.03 | 0.498 | 0.597 | 0.447 | 0.595 | 0.536 | 0.993 | 0.462 | 0.446 | 1.14 | 1.21 | 0.883 | 0.489
27 | EFTAGYNVKFD [GPX4_Y123_A120T] | 0.547 | 0.635 | 0.495 | 0.9 | 0.41 | 0.44 | 0.422 | 0.435 | 0.465 | 0.762 | 0.474 | 0.445 | 0.891 | 0.605 | 0.881 | 0.468
28 | EICTQYEAMAS [GFAP_Y242_R239C] | 0.683 | 0.71 | 0.829 | 0.777 | 0.517 | 0.601 | 0.65 | 0.708 | 0.576 | 1.23 | 0.614 | 0.55 | 1.15 | 0.804 | 0.989 | 2.84
29 | EIIPFYGMSTF [FNDC3B_Y175_YF] | 0.524 | 0.97 | 0.897 | 0.879 | 0.461 | 0.782 | 0.532 | 0.844 | 0.687 | 0.955 | 0.667 | 0.901 | 0.911 | 0.575 | 0.731 | 3.09
